Target: mouse glycophorin-A on mouse erythrocytes (mouse) (UniProt P14220)
Experiment: in vivo, flow cytometry of circulating erythrocytes after intravenous administration

cell-surface half-life: 2.2 h
Substance: 8-arm PEG-ERY1 (8-arm PEG-ERY1-ALEXAFLUOR647)

— patent US20120178139A1
